According to the supplement of paper PMC10724198:
± gives the standard deviation of the averaged measurements.

These sequences were tested on Saccharomyces cerevisiae (assay: protein stability index of tFT-peptide fusion (C-terminal peptide) (PSI (0-1 scale)); higher = more stable (slower turnover)). Conditions: genetic background: wild type; temperature: 30 C.
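Further: PSI is a weighted mean of sequencing reads over stability bins, variants kept only with over 10 reads, mCherry proximal and sfGFP distal, peptide attached via GGGS linker.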

In order of falling protein stability index:
1. WARSLPHPISRR  0.803 ± 0.064
2. DWYSGVTYGPCS  0.78 ± 0.062
3. CGRFVGEGGGKV  0.777 ± 0.1
4. GRPYPPHFQHPS  0.773 ± 0.022
5. WHRTGPFCGFPC  0.766 ± 0.17
6. AAFERRDPDLKV  0.766 ± 0.062
7. TNKKQIEPSKIR  0.763 ± 0.086
8. LIQKANGRIRRG  0.763 ± 0.02
9. VSLVVGTGEWGA  0.762 ± 0.17
10. EKHLKKEIQIKK  0.76 ± 0.07
11. VGGVAGSFIFSC  0.759 ± 0.15
12. WGGTGALGTVRW  0.759 ± 0.028
13. QSWEDILKINEE  0.757 ± 0.011
14. YVVWGGVQGSVL  0.747 ± 0.046
15. EWVTRQFEGWEG  0.7474 ± 0.0021
16. FLFLSFLSSSPS  0.745 ± 0.0088
17. EQSWEVWGRGQG  0.744 ± 0.022
18. PFCVPPPRPFSL  0.743 ± 0.036
19. PPPPPPPPSPSP  0.742 ± 0.074
20. GPTRAIIFERRY  0.741 ± 0.17
21. YLPRPPPTTALL  0.74 ± 0.087
22. SWPIWGSCGWRR  0.739 ± 0.11
23. DTSENSVKFTKV  0.733 ± 0.075
24. HPLPPPPRSPPS  0.732 ± 0.011
25. SPRVRVYLTDTG  0.7306 ± 0.0042
26. GGHAAMGRRGRE  0.73 ± 0.14
27. PAPPHTLPVWAD  0.728 ± 0.029
28. HTSFQTNASPKD  0.727 ± 0.031
29. FSSLFLSLLCPP  0.727 ± 0.073
30. ERLKRNKKSTNG  0.726 ± 0.018
31. GCVGGGWRHVGV  0.725 ± 0.059
32. KGQGPAKTRTRE  0.723 ± 0.031
33. FFPPLLSFPPTD  0.7189 ± 0.0044
34. RPLPLRLDGSGS  0.719 ± 0.047
35. KDKGEKEKRRTK  0.719 ± 0.077
36. GMVEVSTKTKRR  0.719 ± 0.0092
37. SRRVSVSTSWNP  0.718 ± 0.014
38. TCLGYKLHPARG  0.718 ± 0.031
39. KVGQWLRGKSKR  0.7171 ± 0.00075
40. SPLLYPPPSTSI  0.715 ± 0.042
41. PLPSSRSPSPPS  0.711 ± 0.038
42. IADGSEIVRSLI  0.71 ± 0.038
43. SHIAIEKLHSKN  0.709 ± 0.056
44. VRPREWMIPFEC  0.709 ± 0.012
45. HPLFCPPPPPLA  0.708 ± 0.036
46. APSQGPSRPGVV  0.708 ± 0.038
47. APFLDRSSPRSF  0.707 ± 0.15
48. PSGFPLRSYLPP  0.707 ± 0.049
49. RPLPPPPAPPPL  0.706 ± 0.029
50. PPGQPPARSSPV  0.706 ± 0.013
51. FTISHWFSGDGE  0.705 ± 0.015
52. PMVETKVGGIAN  0.705 ± 0.043
53. DPVGFSEMYLRV  0.705 ± 0.0078
54. ISLCSVARLGFA  0.704 ± 0.021
55. NTSRSKKKVNSK  0.704 ± 0.035
56. KNKTKQKTRTET  0.704 ± 0.013
57. LGAWAGGGASSG  0.704 ± 0.03
58. GCGGLCQGGGGW  0.704 ± 0.084
59. LSYGQKARIKRE  0.703 ± 0.075
60. AEHSIFQLFPKD  0.7034 ± 0.002
61. SPGTFLSLRMSI  0.703 ± 0.015
62. SPRPPSLPYAPP  0.701 ± 0.019
63. PPVKQKEKGTAT  0.701 ± 0.021
64. GILFFLQLCACS  0.7014 ± 0.0064
65. WGYRLRGGGGQG  0.701 ± 0.064
66. PLQPPHSPPFPP  0.7 ± 0.028
67. CLFIAGGSDLSH  0.7 ± 0.039
68. RTSYIKNQKKKG  0.699 ± 0.013
69. PPCPSSPHARPA  0.69824 ± 0.00052
70. SVPTPSSNPRVK  0.698 ± 0.05
71. KDVGKVATRRSK  0.696 ± 0.028
72. PAVAPRSTYAWH  0.69619 ± 0.00054
73. PPSRPLPFLLPH  0.696 ± 0.0091
74. RPCDLISGFCGL  0.695 ± 0.012
75. VCSGPKSPATQQ  0.695 ± 0.048
76. EKGRVGLKIIKE  0.695 ± 0.038
77. PPPPPPTPPPCL  0.694 ± 0.057
78. FLSTGIGKGVFL  0.694 ± 0.035
79. RTDTKPTGEHEA  0.694 ± 0.045
80. PSDTHTPDQPAK  0.694 ± 0.056
81. APTPACTRPSVA  0.693 ± 0.033
82. GWTVCVFGSCGV  0.692 ± 0.051
83. GGLIWRHGVGRG  0.692 ± 0.018
84. SPPPLNTFPPLP  0.691 ± 0.025
85. PPLPFSRSPSSL  0.69 ± 0.019
86. PLPPPRPLPTPL  0.69 ± 0.055
87. TTYYTKPPRPKR  0.69 ± 0.035
88. KIMIRKIEIKKE  0.69 ± 0.049
89. PLAPNYPANTGT  0.69 ± 0.021
90. APDLAVWNLGPH  0.68899 ± 0.00041
91. GWSVWFGLGGVW  0.689 ± 0.022
92. LLPPPSRTPPPS  0.688 ± 0.02
93. PPPRSPLLPSPL  0.687 ± 0.019
94. PGLPCRNRMPFR  0.687 ± 0.0078
95. FPDTRSLPLPPG  0.687 ± 0.011
96. KEGSGQRRARRA  0.686 ± 0.066
97. GIRGECEFHSCD  0.685 ± 0.015
98. NPLHGNIRLSPL  0.685 ± 0.046
99. GGGGCRVRGLGA  0.684 ± 0.041
100. SRCRASMPPLRA  0.684 ± 0.034
101. SEALRGVQFLSC  0.684 ± 0.054
102. GGEGRGAFWGGE  0.68361 ± 0.0002
103. VSPSPLDHPFHV  0.684 ± 0.021
104. FLHLGGEWGVEG  0.683 ± 0.041
105. SVGGSLGAGGGG  0.682 ± 0.064
106. VWVSRPWGRGGL  0.681 ± 0.038
107. FARLTSSQGGKD  0.68 ± 0.025
108. GASGGRIGEGEE  0.679 ± 0.011
109. KSRKEREKSDNQ  0.678 ± 0.037
110. QKKKEKKQKEGD  0.678 ± 0.009
111. RLPSSPPSATWL  0.6784 ± 0.0019
112. GGPAWGRGGMYW  0.678 ± 0.034
113. PRGAVGSRPAGR  0.677 ± 0.034
114. DLWTRGAVHRKA  0.6756 ± 0.0061
115. DRRRVIIKENKA  0.675 ± 0.024
116. AIRPPLPPPTPL  0.674 ± 0.046
117. FCLSVVELRGLM  0.672 ± 0.049
118. GDRTIALFFFTI  0.671 ± 0.024
119. NDAKQKRLTFET  0.671 ± 0.048
120. PPAPARFPFLPA  0.6696 ± 0.001
121. PLAGLWPCRSGS  0.669 ± 0.016
122. RGASKYDGDSRR  0.668 ± 0.016
123. RLKLKSECYSPL  0.667 ± 0.034
124. RDGRNSKPTYQP  0.667 ± 0.025
125. EKKKNKTQLKTK  0.667 ± 0.024
126. RLLPPSPPPPPS  0.667 ± 0.035
127. GPEYPFRCRRLF  0.665 ± 0.039
128. YPLPPPRPPCLP  0.664 ± 0.063
129. GRVRGVEGIGKG  0.663 ± 0.018
130. KYNKQRQTRIET  0.663 ± 0.019
131. NSSPCPLPLLPP  0.662 ± 0.036
132. RALRAGVGVRAC  0.662 ± 0.08
133. SSRPLISTLTPY  0.661 ± 0.014
134. SNHYYFILSHFA  0.661 ± 0.0093
135. IPSRALSCLLPC  0.66 ± 0.053
136. RYGDGIELVIGS  0.657 ± 0.011
137. ESCLVSKFDVIV  0.656 ± 0.052
138. AGGSGGEAGSEG  0.655 ± 0.043
139. GAGGARRLAVGQ  0.655 ± 0.014
140. ESCIKGCSGVVS  0.651 ± 0.06
141. FLTAGRLYDGRV  0.6489 ± 0.0032
142. PAPPHPRHPPPP  0.649 ± 0.018
143. SWFLLEVLSDFK  0.649 ± 0.014
144. SSQVELPVSVVW  0.649 ± 0.058
145. VSSWNALCVEGM  0.649 ± 0.0073
146. LPQLPNSRRLPL  0.648 ± 0.049
147. PVFPPPAPTPPT  0.647 ± 0.046
148. CSLPPSPAVPPP  0.644 ± 0.022
149. GSGRPARCVEGG  0.644 ± 0.03
150. GPFPPCVVPSSS  0.643 ± 0.048
151. RCTLFGMDQSSA  0.642 ± 0.027
152. PPPPPPPLPLPP  0.64 ± 0.011
153. PRGYRGNCAYDV  0.636 ± 0.083
154. LALYPYIPDSPF  0.636 ± 0.048
155. LSPFPLFAPFNF  0.635 ± 0.039
156. VVHATITGPVRS  0.635 ± 0.019
157. RGGGGGSAVEGG  0.635 ± 0.095
158. SYFVSGADSLIL  0.635 ± 0.017
159. GRVVVKTFRDFF  0.635 ± 0.064
160. PQDRGICQIIES  0.632 ± 0.017
161. PLLQALLPPAPP  0.632 ± 0.026
162. EIGWTEGGECVG  0.632 ± 0.051
163. IGKWIKKKKQKG  0.631 ± 0.023
164. SSTALVFRLICL  0.63 ± 0.016
165. PSPSFLVFATSY  0.628 ± 0.027
166. VVLFHGLGFCHN  0.627 ± 0.072
167. GGCAAGVGRLAV  0.624 ± 0.075
168. SPGPSPPSPIGP  0.61967 ± 0.00044
169. PPPLRAPPLSLP  0.62 ± 0.0068
170. SCLMSFAFFASL  0.619 ± 0.016
171. RRTSPNKNLKNQ  0.618 ± 0.097
172. GGVVLDEEVGCG  0.614 ± 0.06
173. WGRIVRDFHCGG  0.614 ± 0.0083
174. CKCKFLGLSATM  0.613 ± 0.013
175. GSWDEFGVYSRV  0.6126 ± 0.0058
176. GRSRAALASHIL  0.612 ± 0.058
177. RPFLLWRVVTPL  0.611 ± 0.016
178. SGSFAIYCSVSF  0.611 ± 0.045
179. RCPVFRCITGGL  0.61 ± 0.031
180. QAGKPLYVEMVS  0.609 ± 0.021
181. LRLPKGVSLVDI  0.6093 ± 0.0053
182. KAGLSFSRQRGW  0.606 ± 0.058
183. SPPLPHLPTPTP  0.603 ± 0.14
184. ISVSLWFRGRYY  0.599 ± 0.034
185. KKIEAKGMRNDS  0.599 ± 0.055
186. KGLSNGKNQIKM  0.597 ± 0.036
187. VRFVVRSVSSFV  0.5973 ± 0.0014
188. TRRGDRVGVGSA  0.589 ± 0.072
189. PSLPPSPISPPH  0.588 ± 0.013
190. LRFGGWFLIGLR  0.583 ± 0.021
191. GGRLLLLVGFRV  0.583 ± 0.0066
192. LLNIPLVFFSFP  0.58 ± 0.1
193. ALLPFLTPLLSR  0.561 ± 0.054
194. SQGAGKCIIIAA  0.561 ± 0.015
195. GFTVVGCSYVTT  0.5572 ± 0.0023
196. CLLLVLCKFGLL  0.556 ± 0.023
197. ACLCFIEFRCLL  0.547 ± 0.017
198. FCLSIFYRAFFD  0.537 ± 0.024
199. LHTLPLVLSLPA  0.534 ± 0.025
200. CVIVCETYFQCA  0.53 ± 0.0088
201. GSPCPIVLICGL  0.504 ± 0.034
202. GFLCFRWACVRL  0.487 ± 0.028
